{
  "source": "patent US8278415B2",
  "about": "“Dimeric high affinity EGFR constructs and uses thereof” (Centocor, Inc., priority 2006, dated 2012)",
  "key": {"A431 cells": {"tested_on": "A431 cells", "assay": "FACS of P190-MMB constructs or cetuximab on A431 cells", "assay_type": "cell-based, human", "conditions": "excess EGF"}, "sEGFR-MMB": {"biological_target": "T1, sEGFR-MMB (Homo sapiens, UniProt P00533)", "T1 construct": "made in house; host or cells: HEK 293E", "assay": "P190-MMB constructs, solid phase assays (BIAcore and ELISA) on immobilized sEGFR-MMB", "assay_type": "binding", "from_the_text": "In contrast, 190-MMB as the 4316 construct, binds EGFR and the presence of excess EGF promotes its binding."}, "EGFR": {"biological_target": "T2, EGFR (Homo sapiens, UniProt P00533)", "T2 construct": "endogenous in cells", "assay": "FACE (Fast Activated Cell-based ELISA) of EGFR phosphorylation"}},
  "data": [
    {"molecule": "4316: P190-MMB construct with the longest linker, Flex GGGGS, n 4, SEQ ID NO: 81 (protein) GGDPCTWEVWGRECLQGGGGSGGGGSGGGGSGGGGSCPPCPAPEAAGGPSVFLFPPKPKDTLMISRTPEVTCVVVDVSQEDPEVQFNWYVDGVEVHNAKTKPREEQFNSTYRVVSVLTVLHQDWLNGKEYKCKVSNKGLPSSIEKTISKAKGQPREPQVYTLPPSQEEMTKNQVSLTCLVKGFYPSDIAVEWESNGQPENNYKTTPPVLDSDGSFFLYSRLTVDKSRWQEGNVFSCSVMHEALHNHYTQKSLSLSLGK", "values": [
      {"measurement": "effect of EGF on binding to A431", "setting": "A431 cells", "value": "enhanced binding"},
      {"measurement": "on-rate", "setting": "sEGFR-MMB; BIAcore, no dissociation constant obtained", "value": "much more pronounced on-rate than the other constructs"},
      {"measurement": "binding in solid phase assays and cell-based FACS", "setting": "sEGFR-MMB; comparison of linker lengths", "value": "best binder"},
      {"measurement": "interference with EGF activation of EGFR", "setting": "EGFR", "value": "nor interfere with EGF activation of EGFR"},
      {"measurement": "EGFR phosphorylation (receptor activation)", "setting": "EGFR; absence of EGF", "value": "did not induce EGFR phosphorylation"}
    ]}
  ]
}
